Experimental findings from patent US20130102527A1 are described below.

What all share (assay): cell-based or functional assay
The target in test [1] is proteasome β5 subunit (chymotrypsin-like site) in human cells and cell extracts (human) (UniProt P28074).
The target in test [2] is chymotrypsin-like site (β5 subunit) of yeast 20S proteasome (S. cerevisiae) (UniProt P30656).
For test [3], the target named is proteasome β2 subunit (trypsin-like site) in human cells and cell extracts (human) (UniProt Q99436).
Sequence of proteasome β2 subunit (trypsin-like site) in human cells and cell extracts (human) (Q99436 44-277): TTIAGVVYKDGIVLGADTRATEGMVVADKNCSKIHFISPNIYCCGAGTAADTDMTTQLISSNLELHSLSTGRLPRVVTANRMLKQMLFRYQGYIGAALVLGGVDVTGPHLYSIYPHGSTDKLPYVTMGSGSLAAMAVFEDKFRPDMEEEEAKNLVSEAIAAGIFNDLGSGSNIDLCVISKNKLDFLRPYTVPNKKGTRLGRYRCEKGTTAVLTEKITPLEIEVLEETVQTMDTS
The target of test [4] is trypsin-like site (β2 subunit) of yeast 20S proteasome (S. cerevisiae) (UniProt P25043).
Sequence of trypsin-like site (β2 subunit) of yeast 20S proteasome (S. cerevisiae) (P25043 30-261): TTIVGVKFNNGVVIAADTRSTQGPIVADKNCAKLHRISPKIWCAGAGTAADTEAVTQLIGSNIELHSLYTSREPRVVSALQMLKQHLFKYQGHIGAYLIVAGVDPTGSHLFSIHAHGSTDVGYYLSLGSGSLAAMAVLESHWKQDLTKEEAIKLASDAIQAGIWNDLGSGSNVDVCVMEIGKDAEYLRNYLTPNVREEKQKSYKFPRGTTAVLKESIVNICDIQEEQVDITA
The target of test [5] is chymotrypsin-like site (β5 subunit) of 26S proteasomes purified from rabbit muscle (rabbit) (UniProt G1T4Q9).
Sequence of chymotrypsin-like site (β5 subunit) of 26S proteasomes purified from rabbit muscle (rabbit) (G1T4Q9 entry or part of it): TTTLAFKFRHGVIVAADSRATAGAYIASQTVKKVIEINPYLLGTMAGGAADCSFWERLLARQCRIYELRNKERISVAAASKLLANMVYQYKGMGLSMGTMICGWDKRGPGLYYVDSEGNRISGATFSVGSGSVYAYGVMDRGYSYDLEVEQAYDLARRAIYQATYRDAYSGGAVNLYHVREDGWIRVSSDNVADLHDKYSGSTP
Test [6] deals with trypsin-like site (β2 subunit) of 26S proteasomes purified from rabbit muscle (rabbit) (UniProt G1SWK8).
Sequence of trypsin-like site (β2 subunit) of 26S proteasomes purified from rabbit muscle (rabbit) (G1SWK8 entry or part of it): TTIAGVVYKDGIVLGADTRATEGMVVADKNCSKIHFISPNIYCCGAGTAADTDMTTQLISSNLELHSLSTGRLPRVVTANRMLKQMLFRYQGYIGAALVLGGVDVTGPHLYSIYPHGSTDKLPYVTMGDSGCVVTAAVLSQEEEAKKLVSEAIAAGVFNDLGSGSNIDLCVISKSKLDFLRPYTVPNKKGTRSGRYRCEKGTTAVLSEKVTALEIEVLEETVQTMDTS
Test [7] has as its target caspase-like site (β1 subunit) of 26S proteasomes purified from rabbit muscle (rabbit).

Where only a bound is given, the exact number is not on record here.

Sequence of proteasome β5 subunit (chymotrypsin-like site) in human cells and cell extracts (human) (P28074 60-263): as the sequence (G1T4Q9 entry or part of it) above, with D197E counted along it
Sequence of chymotrypsin-like site (β5 subunit) of yeast 20S proteasome (S. cerevisiae) (P30656 76-287): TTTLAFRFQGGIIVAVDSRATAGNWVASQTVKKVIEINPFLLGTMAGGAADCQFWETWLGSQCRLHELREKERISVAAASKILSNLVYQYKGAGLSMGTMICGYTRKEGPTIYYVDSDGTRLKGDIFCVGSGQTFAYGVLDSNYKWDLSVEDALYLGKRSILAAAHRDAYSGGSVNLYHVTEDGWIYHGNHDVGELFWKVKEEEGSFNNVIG

In test [1], “HMB-Val-Ser-Phe(4-CH2NH2)-VS (48) (peptide)” yielded an IC50 (µM) for sites: Chym-L; NCI-H929 cells, 6 h, PROTEASOMEGLO of 13 µM and an IC50 (µM) for sites: Chym-L; RPMI-8226 cells, 6 h, PROTEASOMEGLO of 15 µM. The same substance displayed an IC50 (µM) for yeast 20S proteasome: Chym-L in test [2] of 19.3 µM. In test [3], this substance yielded an IC50 (µM) for sites: Tr-L; NCI-H929 cells, 6 h, PROTEASOMEGLO of 0.2 µM and an IC50 (µM) for sites: Tr-L; RPMI-8226 cells, 6 h, PROTEASOMEGLO of 3.2 µM. The IC50 (µM) for yeast 20S proteasome: Tr-L in test [4] stood at 1.6 µM.
In test [5], “HMB-Val-Ser-Phe(4-NH2)-VS (49) (peptide)” returned an IC50 (µM) for sites in 26S proteasomes: Chym-L of 0.04 µM. Besides, the IC50 (µM) for sites in 26S proteasomes: Tr-L in test [6] turned out to be 0.11 µM. Moreover, in test [7], the IC50 (µM) for sites in 26S proteasomes: Casp-L turned out to be 23 µM.
In test [3], NC-022 (HMB-Val-Ser-Arg-ek) (peptide) registered an IC50 (µM) for sites: Tr-L; NCI-H929 cells, 6 h, PROTEASOMEGLO of 0.9 µM; an IC50 (µM) for sites: Tr-L; RPMI-8226 cells, 6 h, PROTEASOMEGLO of 24 µM; an inhibition of the trypsin-like sites at 3 µM NC-022 within 4-6 hours, NCI-H929 cells of 90%; an inhibition of trypsin-like activity 5 hours after NC-022 addition, NCI-H929 and KMS-12-BM cells of over 90%. Further, in test [3], the inhibition of trypsin-like activity after a 6-hour incubation, MM cell lines is over 90%.
